Data as given in patent US10864251B2, “Peptides of syndecan-1 for inhibiting angiogenesis” (Wisconsin Alumni Research Foundation, priority 2006, dated 2020).
Blank lines part the entries; values can stand above or below the molecule they belong to. Where no end group is shown, it is not given here.

Legend:
[1] = Active SSTN in blood detected on dot blots; format: in vivo; details: mouse
Procedure: Lastly, SSTN was tested in the in vivo corneal angiogenesis assay. Polyhydroxyethylmethylacrylate pellets (0.25 μL) containing 67 ng FGF-2 and sucralfate as a slow release agent were implanted into the avascular mouse cornea. After seven days, fluorescent dextran was injected suborbitally to highlight the vascular system and the mice were sacrificed. […] To supply the inhibitor in a more quantifiable and physiological manner, recombinant mS1ED or SSTN were delivered systemically via Alzet osmotic pumps implanted subcutaneously on the backs of the animals. […] To correlate this with the active concentration in the plasma, the inventors took advantage of rabbit polyclonal antibodies generated against mS1ED, which detect active SSTN on dot blots. […] Using this method to detect active SSTN in the blood collected from animals after 1 week of SSTN treatment, SSTN is shown to be in the blood at 125-150 nM when present at 10 μM in the osmotic pump.

[2] = tested on: MDA-MB-231 human mammary carcinoma cells; details: MDA-MB-231 on vitronectin; shown previously (Beauvais et al., 2004); read-out: IC50, block of cell spreading on VN; cited from earlier work
[3] = tested on: human aortic endothelial cells (HAEC); test: Cell attachment and spreading on VN, HAECs; format: cell-based
Procedure: FIG. 2—Human aortic endothelial cells rely on αvβ3 and αvβ5 integrins for spreading on VN. Human aortic endothelial cells (HAECs) were suspended and replated on 10 μg/ml VN in the presence of integrin inhibitory antibodies mAb 13 (specific for β1-containing integrins; this will inhibit the αvβ1 integrin), LM609 (specific for the αvβ3 integrin) and P1F6 (specific for the αvβ5 integrin), or combinations of these mAbs. After 2 hr, the cells were fixed, stained with Alexa488-conjugated phalloidin to aid in visualization, and observed by fluorescence microscopy to document integrin-dependent spreading. Inhibition of spreading requires simultaneous inhibition of both αvβ3 and αvβ5 integrins.
FIG. 3—αvβ3 and αvβ5 integrin-mediated spreading of human aortic endothelial cells on VN is disrupted by recombinant Sdc1 ectodomain fusion protein. HAECs were plated on VN in the presence of no competitor, 1-10 μM GST-mS1ED (recombinant mouse Sdc1 ectodomain expressed as a fusion protein with GST) or GST alone.
FIG. 4—Inhibition of HAEC spreading on VN by silencing of Sdc-1. […]
FIGS. 10A-10D—Dependence of HMEC cell attachment and spreading on integrin activation by Sdc1 and its inhibition by SSTN. […] Sdc1 expression was quantified by flow cytometry using human Sdc1-specific mAb B-B4 or a control mouse IgG. […]

[4] = tested on: mouse aortic endothelial cells; test: Cell spreading on VN, mouse aortic endothelial cells; format: cell-based; details: 1 μM competitor
Procedure: FIGS. 10A-10D—Dependence of HMEC cell attachment and spreading on integrin activation by Sdc1 and its inhibition by SSTN. (FIG. 10A) HMECs were plated for 2 hr either on Sdc1-specific antibody B-B4 to engage Sdc1 or on VN (10 μg/ml coating concentration) to engage the αvβ3 and αvβ5 integrins. Blocking antibodies LM609 (10 μg/ml, specific for αvβ3) and P1F6 (10 μg/ml, specific for αvβ5), SSTN (0.5 μM) or recombinant mouse Sdc1 ectodomain (mS1ED, 5 μM) were added. The ligand mimetic antibody WOW1 was used to detect activated αvβ3 integrin on cells plated on B-B4. (FIG. 10B) HMECs were treated with siRNA oligo specific for human Sdc1 for 48 hr prior to plating on VN. Sdc1 expression was quantified by flow cytometry using human Sdc1-specific mAb B-B4 or a control mouse IgG. (FIG. 10C-10D) The percentage of cell attaching or attaching and spreading was quantified for HMECs, HAEC and MAECs plated on VN for 24 hr in the presence of mS1ED or SSTN, or after siRNA silencing of Sdc1 expression in the presence of mAb LM609 to block αvβ3 integrin, P1F6 to block αvβ5 integrin, or both antibodies.
The next test was whether agents that target Sdc1, especially competition with recombinant S1ED, will block the activity of these two integrins and thus block their interaction with VN. […]

level at time molar at 168 h ([1]; blood, sc, after 1 week, 10 μM in the osmotic pump, read-out: concentration in the blood): 125 to 150 nM | clearance rate in the plasma ([1]; suggested from blood level): 10 to 13 h
Molecule: SNTETAFTSVLPAGEKPEEGEPVLHVEAEPGFTARDKEKEVTTRPRETV [synstatin82-130]

IC50 ([3]; read-out: IC50, cell spreading on vitronectin): ~1000 nM
B1: S1ED: recombinant mouse Sdc1 ectodomain (amino acids 18-251), expressed in bacteria as GST fusion or 6×His-tagged protein (protein)
chain: QPALPQIVAVNVPPEDQDGSGDDSDNFSGSGTGALPDTLSRQTPSTWKDVWLLTATPTAPEPTSSNTETAFTSVLPAGEKPEEGEPVLHVEAEPGFTARDKEKEVTTRPRETVQLPITQRASTVRVTTAQAAVTSHPHGGMQPGLHETSAPTAPGQPDHQPPRVEGGGTSVIKEVVEDGTANQLPAGEGSGEQDFTFETSGENTAVAAVEPGLRNQPPVDEGATGASQSLLDRK
modifications: left off: a dimerising Fc or GST
notes: recombinant mouse Sdc1 ectodomain (amino acids 18-251), expressed in bacteria as GST fusion or 6×His-tagged protein
IC50 [2]: 3 to 10 µM | cell spreading on VN ([3]; soluble competitor 1-10 μM (FIG. 3)): blocked | spreading on VN [4]: blocked
